Measurements from patent publication US20240254227A1 (Alector, published 2024).

Target: T1, murine CD300LB-Fc (mouse)
T1 construct: mouse IgG2a-Fc fusion (R&D Systems); the entry is the whole fusion chain; also called mCD300LB; Mouse CD300LB-Fc
T1 chain: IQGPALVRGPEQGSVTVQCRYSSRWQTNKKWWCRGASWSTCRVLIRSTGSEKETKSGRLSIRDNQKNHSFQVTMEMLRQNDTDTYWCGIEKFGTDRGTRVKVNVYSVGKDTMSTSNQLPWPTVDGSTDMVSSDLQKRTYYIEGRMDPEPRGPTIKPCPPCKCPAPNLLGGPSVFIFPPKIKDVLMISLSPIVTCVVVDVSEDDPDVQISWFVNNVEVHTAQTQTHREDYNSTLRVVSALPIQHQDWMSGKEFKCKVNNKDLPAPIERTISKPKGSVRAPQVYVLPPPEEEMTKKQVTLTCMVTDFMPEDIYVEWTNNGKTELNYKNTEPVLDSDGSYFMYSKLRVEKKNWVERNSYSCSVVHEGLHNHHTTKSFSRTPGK
Test: SPR (Carterra LSA), antibody immobilised, Fc fusion at 300 or 600 nM
Protocol: Binding of mouse anti-CD300LB IgG1 antibodies of the present disclosure to human and murine CD300 orthologs were evaluated by surface plasmon resonance (SPR) using a Carterra LSA instrument (Carterra, Salt Lake City, UT). […] A HC200M sensor chip (Carterra) was activated using the single channel flow cell with a 7-minute injection of a 1:1:1 mixture of 100 mM MES pH 5.5, 100 mM sulfo-NHS, 400 mM EDC (all reconstituted in MES pH 5.5; 100 μL of each mixed in vial immediately before running assay). After switching to the multi-channel array flow cell, the antibodies were injected over the activated chip in a 96-spot array for 10 minutes. The remaining unconjugated active groups on the chip were then blocked by injecting 1M Ethanolamine pH 8.5 (Carterra) for 7 minutes using the single channel flow cell. After priming with running buffer (HBS-TE, Carterra) with 0.5 mg/ml BSA (Sigma), the immobilized anti-CD300LB antibodies were tested for their ability to bind human and mouse recombinant CD300LB extracellular domains. Human CD300 family members and mouse CD300A were hIgG1-Fc fusions, while mouse CD300LB, mouse CD300C, mouse CD300D, and mouse CD300E were mouse IgG2a-Fc fusions (R&D Systems). Binding was assessed by injecting each analyte over the entire antibody array using the single channel flow cell. CD300 analytes were diluted to 300 nM or 600 nM in running buffer and injected in series without regeneration. Two or three buffer blanks were run between each mouse or human ortholog, respectively. Data were processed and analyzed using NextGenKIT high-throughput kinetics analysis software (Carterra).
Results of anti-CD300LB antibody binding to human CD300 family members is provided below in Table 7.

B1: anti-CD300LB antibody CD-01 (antibody, V domains shown)
VH: RVQLQQSGAELVRPGASVTLSCKASGFTFTDFEMHWVKKTPVHGLEWIGAIDPESGNTAYNQKFRGKATLTADKSSSTAYMELRYLTSEDSAVYYCTPLISGADYWGQGTTLTVSS
VL: DVVMTQSPLSLPVSLGDQASISCRSSQSLVHSDGNTYLYWYLQKPGQSPKLLIYKVSNRFSGVPDRFSGSGSGTDFTFKISRVGAEDLGVYFCSQSTHVPWTFGGGTKLEII
SPR binding (control subtracted): 29
